Legend:
[1] = molecular target: MLL1 third plant homeodomain (PHD3) (UniProt Q03164); assay: ITC; conditions not given (table S1, fig. S2)
[2] = molecular target: Cyp33 RRM∆α/MLL1 PHD3 complex (UniProt Q9UNP9); assay: ITC; conditions not given (table S1, fig. S2)
H3(1-13)K4me3 peptide = assay: ITC; settings: NMR titrations: 20 mM KHPO4 pH 7, 40 mM KCl, 1 mM DTT, 289.15 K as printed (table S2 says 298.15 K for Kd); structures of complexes: 40 mM KCl, 20 mM KH2PO4 pH …
[3] = molecular target: Histone H3 H3K4me3 (Homo sapiens) (UniProt P68431); settings: cited from earlier work

MLL1 third plant homeodomain (PHD3), sequence (Q03164 1564-1627): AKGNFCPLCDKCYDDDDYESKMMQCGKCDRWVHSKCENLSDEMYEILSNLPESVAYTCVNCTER
MLL1 PHD3-BRD, sequence (Q03164 1566-1784): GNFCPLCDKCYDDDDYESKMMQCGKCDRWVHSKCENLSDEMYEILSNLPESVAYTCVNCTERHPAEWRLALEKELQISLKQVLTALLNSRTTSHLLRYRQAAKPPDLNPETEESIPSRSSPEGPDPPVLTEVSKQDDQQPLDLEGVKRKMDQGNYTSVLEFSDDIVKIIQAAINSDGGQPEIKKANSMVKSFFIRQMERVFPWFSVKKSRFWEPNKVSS

| Substance | Kd [1] | also measured |
| --- | --- | --- |
| Cyp33 KRK83-88A triple mutant | 7 µM |  |
| Cyp33 W101A, L102A, F105A triple mutant (Cyp33-WLF) | 7 µM |  |
| Histone H3 lysine N6-trimethylated peptide (H3K4me3) (from UniProt P68431 2-14) |  | Kd [2]: 24 µM |
| Cyp33 K83A mutant | 7 µM |  |
| Cyp33 RNA recognition motif (RRM) with the C-terminal extension (α3 helix) (from UniProt Q9UNP9 1-114) (domain or fragment) | 4.6 µM |  |
| Cyp33 RK86-88A double mutant | 7 µM |  |
| UAAUGUUAAUGUUAAUGUUAAUGU [4x UAAUGU repeat RNA] |  | Kd (H3(1-13)K4me3 peptide): 30 µM |
| MLL1 PHD3-BRD (from UniProt Q03164) |  | Kd [3]: 4 µM |

From PMC10115415
